In paper PMC6004480 (Proceedings of the National Academy of Sciences of the …, 2018):

T1: MTR4, full length (human, UniProt P42285 1-1042)
T1 sequence: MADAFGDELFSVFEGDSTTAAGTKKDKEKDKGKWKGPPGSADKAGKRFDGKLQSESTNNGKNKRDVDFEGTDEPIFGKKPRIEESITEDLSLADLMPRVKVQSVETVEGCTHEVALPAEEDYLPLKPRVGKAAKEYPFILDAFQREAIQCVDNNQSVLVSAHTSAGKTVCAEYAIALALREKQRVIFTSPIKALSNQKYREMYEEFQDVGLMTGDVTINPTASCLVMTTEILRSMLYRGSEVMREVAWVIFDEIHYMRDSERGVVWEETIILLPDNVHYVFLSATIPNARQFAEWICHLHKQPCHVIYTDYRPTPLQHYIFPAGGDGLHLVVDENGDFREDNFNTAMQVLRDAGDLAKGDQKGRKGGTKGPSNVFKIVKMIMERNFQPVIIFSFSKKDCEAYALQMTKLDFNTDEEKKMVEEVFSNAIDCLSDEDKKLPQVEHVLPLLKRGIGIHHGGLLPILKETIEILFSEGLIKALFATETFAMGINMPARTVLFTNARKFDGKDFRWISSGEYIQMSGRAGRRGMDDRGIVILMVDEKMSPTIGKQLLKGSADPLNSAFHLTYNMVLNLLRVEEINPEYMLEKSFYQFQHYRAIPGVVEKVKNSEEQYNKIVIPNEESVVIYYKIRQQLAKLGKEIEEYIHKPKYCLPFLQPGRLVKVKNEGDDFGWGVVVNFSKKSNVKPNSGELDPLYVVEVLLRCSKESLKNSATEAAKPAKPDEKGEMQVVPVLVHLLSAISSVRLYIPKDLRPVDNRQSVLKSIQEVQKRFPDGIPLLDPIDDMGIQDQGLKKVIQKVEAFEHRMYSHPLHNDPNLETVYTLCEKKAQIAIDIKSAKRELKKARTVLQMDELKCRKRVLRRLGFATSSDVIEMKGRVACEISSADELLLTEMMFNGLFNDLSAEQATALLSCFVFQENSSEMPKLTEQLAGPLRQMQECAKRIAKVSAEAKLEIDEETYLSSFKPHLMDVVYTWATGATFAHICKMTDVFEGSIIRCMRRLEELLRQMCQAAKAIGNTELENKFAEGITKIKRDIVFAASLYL


Legend:
MTR4, full length [1] = biological target: T1, MTR4, full length; test: pull-down
MTR4, full length [2] = biological target: T1, MTR4, full length; test: SEC
MTR4;ZCCHC8core;RBM7core = MTR4;ZCCHC8core;RBM7core (Homo sapiens?;Homo sapiens?;Homo …, UniProt P42285;Q6NZY4;Q9Y580 1-1042;1-707;6-94, |del416-507|); test: EMSA

binding result (MTR4, full length [1]) | Binder | binding result (MTR4;ZCCHC8core;RBM7core) | also measured
binds | Copurified complex of Strep-RBM7core and full-length ZCCHC8 (Z1) (complex) chain 1: AEADRTLFVGNLETKVTEELLFELFHQAGPVIKVKIPKDKDGKPKQFAFVNFKHEVSVPYAMNLLNGIKLYGRPIKIQFRSGSSHAPQD chain 2: MAAEVYFGDLELFEPFDHPEESIPKPVHTRFKDDDGDEEDENGVGDAELRERLRQCEETIEQLRAENQELKRKLNILTRPSGILVNDTKLDGPILQILFMNNAISKQYHQEIEEFVSNLVKRFEEQQKNDVEKTSFNLLPQPSSIVLEEDHKVEESCAIKNNKEAFSVVGSVLYFTNFCLDKLGQPLLNENPQLSEGWEIPKYHQVFSHIVSLEGQEIQVKAKRPKPHCFNCGSEEHQMKDCPMPRNAARISEKRKEYMDACGEANNQNFQQRYHAEEVEERFGRFKPGVISEELQDALGVTDKSLPPFIYRMRQLGYPPGWLKEAELENSGLALYDGKDGTDGETEVGEIQQNKSVTYDLSKLVNYPGFNISTPRGIPDEWRIFGSIPMQACQQKDVFANYLTSNFQAPGVKSGNKRSSSHSSPGSPKKQKNESNSAGSPADMELDSDMEVPHGSQSSESFQFQPPLPPDTPPLPRGTPPPVFTPPLPKGTPPLTPSDSPQTRTASGAVDEDALTLEELEEQQRRIWAALEQAESVNSDSDVPVDTPLTGNSVASSPCPNELDLPVPEGKTSEKQTLDEPEVPEIFTKKSEAGHASSPDSEVTSLCQKEKAELAPVNTEGALLDNGSVVPNCDISNGGSQKLFPADTSPSTATKIHSPIPDMSKFATGITPFEFENMAESTGMYLRIRSLLKNSPRNQQKNKKASE |  | 
binds | Copurified complex of Strep-RBM7core and ZCCHC8 1-327 (Z2) (complex) chain 1: AEADRTLFVGNLETKVTEELLFELFHQAGPVIKVKIPKDKDGKPKQFAFVNFKHEVSVPYAMNLLNGIKLYGRPIKIQFRSGSSHAPQD chain 2: MAAEVYFGDLELFEPFDHPEESIPKPVHTRFKDDDGDEEDENGVGDAELRERLRQCEETIEQLRAENQELKRKLNILTRPSGILVNDTKLDGPILQILFMNNAISKQYHQEIEEFVSNLVKRFEEQQKNDVEKTSFNLLPQPSSIVLEEDHKVEESCAIKNNKEAFSVVGSVLYFTNFCLDKLGQPLLNENPQLSEGWEIPKYHQVFSHIVSLEGQEIQVKAKRPKPHCFNCGSEEHQMKDCPMPRNAARISEKRKEYMDACGEANNQNFQQRYHAEEVEERFGRFKPGVISEELQDALGVTDKSLPPFIYRMRQLGYPPGWLKEAE |  | 
 | ZCCHC8, full length (Z1) (natural protein) MAAEVYFGDLELFEPFDHPEESIPKPVHTRFKDDDGDEEDENGVGDAELRERLRQCEETIEQLRAENQELKRKLNILTRPSGILVNDTKLDGPILQILFMNNAISKQYHQEIEEFVSNLVKRFEEQQKNDVEKTSFNLLPQPSSIVLEEDHKVEESCAIKNNKEAFSVVGSVLYFTNFCLDKLGQPLLNENPQLSEGWEIPKYHQVFSHIVSLEGQEIQVKAKRPKPHCFNCGSEEHQMKDCPMPRNAARISEKRKEYMDACGEANNQNFQQRYHAEEVEERFGRFKPGVISEELQDALGVTDKSLPPFIYRMRQLGYPPGWLKEAELENSGLALYDGKDGTDGETEVGEIQQNKSVTYDLSKLVNYPGFNISTPRGIPDEWRIFGSIPMQACQQKDVFANYLTSNFQAPGVKSGNKRSSSHSSPGSPKKQKNESNSAGSPADMELDSDMEVPHGSQSSESFQFQPPLPPDTPPLPRGTPPPVFTPPLPKGTPPLTPSDSPQTRTASGAVDEDALTLEELEEQQRRIWAALEQAESVNSDSDVPVDTPLTGNSVASSPCPNELDLPVPEGKTSEKQTLDEPEVPEIFTKKSEAGHASSPDSEVTSLCQKEKAELAPVNTEGALLDNGSVVPNCDISNGGSQKLFPADTSPSTATKIHSPIPDMSKFATGITPFEFENMAESTGMYLRIRSLLKNSPRNQQKNKKASE |  | binding result (MTR4, full length [2]): binds
binds | Copurified complex of Strep-RBM7core and ZCCHC8 283-415 + 508-707 (Z4) (complex) chain 1: AEADRTLFVGNLETKVTEELLFELFHQAGPVIKVKIPKDKDGKPKQFAFVNFKHEVSVPYAMNLLNGIKLYGRPIKIQFRSGSSHAPQD chain 2: FGRFKPGVISEELQDALGVTDKSLPPFIYRMRQLGYPPGWLKEAELENSGLALYDGKDGTDGETEVGEIQQNKSVTYDLSKLVNYPGFNISTPRGIPDEWRIFGSIPMQACQQKDVFANYLTSNFQAPGVKSGGAVDEDALTLEELEEQQRRIWAALEQAESVNSDSDVPVDTPLTGNSVASSPCPNELDLPVPEGKTSEKQTLDEPEVPEIFTKKSEAGHASSPDSEVTSLCQKEKAELAPVNTEGALLDNGSVVPNCDISNGGSQKLFPADTSPSTATKIHSPIPDMSKFATGITPFEFENMAESTGMYLRIRSLLKNSPRNQQKNKKASE |  | 
 | Substrate III (dsRNA) RNA 1: AGUGCGCUGUAUCUUCAAGGCCACU RNA 2: AGUGGCCUUGAAGAUACAGCGCACUAAAAAAAAAAUUUUUAAAAA | binds | 
binds | ZCCHC8 1-327 (Z2) (domain or fragment) MAAEVYFGDLELFEPFDHPEESIPKPVHTRFKDDDGDEEDENGVGDAELRERLRQCEETIEQLRAENQELKRKLNILTRPSGILVNDTKLDGPILQILFMNNAISKQYHQEIEEFVSNLVKRFEEQQKNDVEKTSFNLLPQPSSIVLEEDHKVEESCAIKNNKEAFSVVGSVLYFTNFCLDKLGQPLLNENPQLSEGWEIPKYHQVFSHIVSLEGQEIQVKAKRPKPHCFNCGSEEHQMKDCPMPRNAARISEKRKEYMDACGEANNQNFQQRYHAEEVEERFGRFKPGVISEELQDALGVTDKSLPPFIYRMRQLGYPPGWLKEAE |  | 
 | Substrate II (dsRNA) RNA 1: AGUGCGCUGUAUCUUCAAGGCCACU RNA 2: AGUGGCCUUGAAGAUACAGCGCACUAAAAAUUUUUAAAAAAAAAA | binds | 
binds | ZCCHC8 283-415 + 508-707 (Z4) (domain or fragment) FGRFKPGVISEELQDALGVTDKSLPPFIYRMRQLGYPPGWLKEAELENSGLALYDGKDGTDGETEVGEIQQNKSVTYDLSKLVNYPGFNISTPRGIPDEWRIFGSIPMQACQQKDVFANYLTSNFQAPGVKSGGAVDEDALTLEELEEQQRRIWAALEQAESVNSDSDVPVDTPLTGNSVASSPCPNELDLPVPEGKTSEKQTLDEPEVPEIFTKKSEAGHASSPDSEVTSLCQKEKAELAPVNTEGALLDNGSVVPNCDISNGGSQKLFPADTSPSTATKIHSPIPDMSKFATGITPFEFENMAESTGMYLRIRSLLKNSPRNQQKNKKASE |  | 
binds | PIPDMSKFATGITPFEFENMAESTGMYLRIRSLLKNSPRNQQKNKKASE (domain or fragment) [Strep-tagged ZCCHC8 C-terminal domain (Z5; 659-707)] |  | 
 | Substrate I (dsRNA) RNA 1: AGUGCGCUGUAUCUUCAAGGCCACU RNA 2: AGUGGCCUUGAAGAUACAGCGCACUUUUUUAAAAAAAAAAAAAAA | binds | 
